Data published in PMC5214336.

Legend:
[1] = target: Bos1 model TA substrate labelled with 7-hydroxycoumaryl ethylglycine (Cm) (S. cerevisiae) (UniProt P25385); assay: FRET or BRET; stopped-flow time course of TA transfer from Sgt2 to Get3^BDP without Get4/5
[2] = target: 2AG model TA substrate labelled with Cm (S. cerevisiae) (UniProt P25385); assay: FRET or BRET; pulse-chase: 20-50 nM preformed purified Get3^BDP•TA^Cm chased with a 10-fold excess of unlabeled Get3; loss of FRET followed in time
[3] = target: 3AG model TA substrate labelled with Cm (S. cerevisiae) (UniProt P25385); assay: as above
[4] = target: 4AG model TA substrate labelled with Cm (S. cerevisiae) (UniProt P25385); assay: as above
[5] = target: 5AG model TA substrate labelled with Cm (S. cerevisiae) (UniProt P25385); assay: as above
[6] = target: 6AG model TA substrate labelled with Cm (S. cerevisiae) (UniProt P25385); assay: as above
[7] = target: Bos1 model TA substrate labelled with 7-hydroxycoumaryl ethylglycine (Cm) (S. cerevisiae) (UniProt P25385); assay: as above
[8] = target: Bos1-FisC model TA substrate labelled with Cm (S. cerevisiae); assay: as above
[9] = target: 2AG model TA substrate labelled with Cm (S. cerevisiae) (UniProt P25385); assay: FRET or BRET; stopped-flow time courses of TA transfer with Get4/5: ~50 nM Sgt2•TA^Cm in 150 nM Sgt2 mixed 1:1 with 400 nM Get3^BDP, 400 nM Get4/5, 2 mM ATP; donor fluorescence at 445 nm; biphasic fit
[10] = target: 3AG model TA substrate labelled with Cm (S. cerevisiae) (UniProt P25385); assay: as above
[11] = target: 4AG model TA substrate labelled with Cm (S. cerevisiae) (UniProt P25385); assay: as above
[12] = target: 5AG model TA substrate labelled with Cm (S. cerevisiae) (UniProt P25385); assay: as above
[13] = target: Bos1 model TA substrate labelled with 7-hydroxycoumaryl ethylglycine (Cm) (S. cerevisiae) (UniProt P25385); assay: as above
[14] = target: Bos1-FisC model TA substrate labelled with Cm (S. cerevisiae); assay: as above
[15] = target: 2AG model TA substrate labelled with Cm (S. cerevisiae) (UniProt P25385); assay: FRET or BRET; equilibrium titration of TA transfer from Sgt2 to Get3: 20-50 nM purified Sgt2•TA^Cm, 150 nM Sgt2, 150 nM Get4/5, 2 mM ATP, varied Get3^BDP; GET buffer, 25°C; apparent K1/2 at 150 nM Sgt2
[16] = target: 3AG model TA substrate labelled with Cm (S. cerevisiae) (UniProt P25385); assay: as above
[17] = target: 4AG model TA substrate labelled with Cm (S. cerevisiae) (UniProt P25385); assay: as above
[18] = target: 5AG model TA substrate labelled with Cm (S. cerevisiae) (UniProt P25385); assay: as above
[19] = target: Bos1 model TA substrate labelled with 7-hydroxycoumaryl ethylglycine (Cm) (S. cerevisiae) (UniProt P25385); assay: as above
[20] = target: Bos1-FisC model TA substrate labelled with Cm (S. cerevisiae); assay: as above

B1: BODIPY-FL-labeled ybbR-Get3 (enzyme)
chain: MDLTVEPNLHSLITSTTHKWIFVGGKGGVGKTTSSCSIAIQMALSQPNKQFLLISTDPAHNLSDAFGEKFGKDARKVTGMNNLSCMEIDPSAALKDMNDMAVSRANNNGSDGQGDDLGSLLQGGALADLTGSIPGIDEALSFMEVMKHIKRQEQGEGETFDTVIFDTAPTGHTLRFLQLPNTLSKLLEKFGEITNKLGPMLNSFMGAGNVDISGKLNELKANVETIRQQFTDPDLTTFVCVCISEFLSLYETERLIQELISYDMDVNSIIVNQLLFAENDQEHNCKRCQARWKMQKKYLDQIDELYEDFHVVKMPLCAGEIRGLNNLTKFSQFLNKEYNPITDGKVIYELEDKE
modifications: CoA-BODIPY-FL enzymatically conjugated to the ybbR tag by the Sfp phosphopantetheinyl transferase
Q: For B1, which k fast of TA transfer from Sgt2 to Get3 (fast phase) [1] is on record?
A: 0.0094 s⁻¹

Q: What about the k slow of TA transfer from Sgt2 to Get3 (slow phase) [1] of the same binder?
A: 0.003 s⁻¹

Q: And the t1/2 of TA transfer from Sgt2 to Get3 [1]?
A: 98 s

Q: And the koff [2]?
A: 0.000383 s⁻¹

Q: What about the koff [3] of the same binder?
A: 0.000433 s⁻¹

Q: And the koff [4]?
A: 0.000283 s⁻¹

Q: What about the koff [5] of the same binder?
A: 0.000567 s⁻¹

Q: What about the koff [6] of the same binder?
A: 0.00333 s⁻¹

Q: What about the koff [7] of the same binder?
A: 0.0003 s⁻¹

Q: What about the koff [8] of the same binder?
A: 0.000483 s⁻¹

Q: What about the k fast of TA transfer from Sgt2 to Get3 (fast phase) [9] of the same binder?
A: 0.077 s⁻¹

Q: What about the k slow of TA transfer from Sgt2 to Get3 (slow phase) [9] of the same binder?
A: 0.007 s⁻¹

Q: And the t1/2 of TA transfer from Sgt2 to Get3 [9]?
A: 13.5 s

Q: What about the k fast of TA transfer from Sgt2 to Get3 (fast phase) [10] of the same binder?
A: 0.164 s⁻¹

Q: And the k slow of TA transfer from Sgt2 to Get3 (slow phase) [10]?
A: 0.017 s⁻¹

Q: And the t1/2 of TA transfer from Sgt2 to Get3 [10]?
A: 4.8 s

Q: And the k fast of TA transfer from Sgt2 to Get3 (fast phase) [11]?
A: 0.183 s⁻¹

Q: What about the k slow of TA transfer from Sgt2 to Get3 (slow phase) [11] of the same binder?
A: 0.033 s⁻¹

Q: What about the t1/2 of TA transfer from Sgt2 to Get3 [11] of the same binder?
A: 6.3 s

Q: What about the k fast of TA transfer from Sgt2 to Get3 (fast phase) [12] of the same binder?
A: 0.151 s⁻¹

Q: What about the k slow of TA transfer from Sgt2 to Get3 (slow phase) [12] of the same binder?
A: 0.023 s⁻¹

Q: What about the t1/2 of TA transfer from Sgt2 to Get3 [12] of the same binder?
A: 11.8 s

Q: What about the k fast of TA transfer from Sgt2 to Get3 (fast phase) [13] of the same binder?
A: 0.047 s⁻¹

Q: What about the k slow of TA transfer from Sgt2 to Get3 (slow phase) [13] of the same binder?
A: 0.011 s⁻¹

Q: What about the t1/2 of TA transfer from Sgt2 to Get3 [13] of the same binder?
A: 17.7 s

Q: What about the k fast of TA transfer from Sgt2 to Get3 (fast phase) [14] of the same binder?
A: 0.063 s⁻¹

Q: And the k slow of TA transfer from Sgt2 to Get3 (slow phase) [14]?
A: 0.009 s⁻¹

Q: What about the t1/2 of TA transfer from Sgt2 to Get3 [14] of the same binder?
A: 12.3 s

Q: What about the K1/2 (Get3 for 50% TA transfer from Sgt2, at 150 nM Sgt2) [15] of the same binder?
A: 6.4 nM

Q: What about the K1/2 (Get3 for 50% TA transfer from Sgt2, at 150 nM Sgt2) [16] of the same binder?
A: 3.7 nM

Q: What about the K1/2 (Get3 for 50% TA transfer from Sgt2, at 150 nM Sgt2) [17] of the same binder?
A: 5.7 nM

Q: And the K1/2 (Get3 for 50% TA transfer from Sgt2, at 150 nM Sgt2) [18]?
A: 10 nM

Q: And the K1/2 (Get3 for 50% TA transfer from Sgt2, at 150 nM Sgt2) [19]?
A: 5.2 nM

Q: What about the K1/2 (Get3 for 50% TA transfer from Sgt2, at 150 nM Sgt2) [20] of the same binder?
A: 9.2 nM
